# Experimental data published in the supplement of paper PMC10567573.
# B1: SLC35F2 (parent)
# chain: SFMPLVIKVTSATSVNLGILTADL
# Variants of: B1
# Assay: protein stability index of a GFP-peptide fusion (GPS, HEK-293T) (PSI 1-6); higher = more stable
# Settings: c terminus: a fixed tail appended
# 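Also: lentivirally expressed fusions sorted by FACS into six bins by GFP to DsRed ratio, PSI derived from sequencing read proportions per bin multiplied by bin number.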
row,Variant,protein stability index
1,SFMPLVIKVTSATSVNLMILTADL [G18M],2.55
2,SFMPLVIKVTSATSVNLVILTADL [G18V],2.17
3,SFMPLVIKVTSATSVNLPILTADL [G18P],2.47
4,SFMPLVIKVTSATSVNLNILTADL [G18N],3.27
5,SFMPLVIKVTSATSVNLYILTADL [G18Y],3.08
6,SFMPLVIKVTSATSVNLWILTADL [G18W],3.32
7,SFMPLVIKVTSATSVNLAILTADL [G18A],2.54
8,SFMPLVIKVTSATSVNLHILTADL [G18H],3.1
9,SFMPLVIKVTSATSVNLIILTADL [G18I],3.72
10,SFMPLVIKVTSATSVNLGILVADL [T21V],2.54
11,SFMPLVIKVTSATSVNLGILAADL [T21A],2.49
12,SFMPLVIKVTSATSVNLGILEADL [T21E],2.86
13,SFMPLVIKVTSATSVNLGILKADL [T21K],2.52
14,SFMPLVIKVTSATSVNLGILIADL [T21I],3.26
15,SFMPLVIKVTSATPVNLGILTADL [S14P],2.44
16,SFMPLVIKVTSATAVNLGILTADL [S14A],2.47
17,SFMPLVIKVTSATHVNLGILTADL [S14H],1.79
18,SFMPLVIKVTSATNVNLGILTADL [S14N],3.45
19,SFMPLVIKVTSATQVNLGILTADL [S14Q],1.71
20,SFMPLVIKVTSATLVNLGILTADL [S14L],2.15
21,SFMPLVIKVTSATCVNLGILTADL [S14C],3.32
22,SFMPLVIKVKSATSVNLGILTADL [T10K],2.12
23,SFMPLVIKVQSATSVNLGILTADL [T10Q],3.38
24,SFMPLVIKVMSATSVNLGILTADL [T10M],2.46

row,Variant,protein stability index
1,SFMPLVIKVPSATSVNLGILTADL [T10P],1.31
2,SFMPLVIKVNSATSVNLGILTADL [T10N],2.43
3,SFMPLVIKVRSATSVNLGILTADL [T10R],2.69
4,SFMPLVIKVESATSVNLGILTADL [T10E],2.98
5,SFMPLVIKVTSATSVNLGILTYDL [A22Y],3.41
6,SFMPLVIKVTSATSVNLGILTVDL [A22V],3.18
7,SFMPLVIKVTSATSVNLGILTHDL [A22H],3.34
8,SFMPLVIKVTSATSVNLGILTIDL [A22I],4
9,SFMPLVIKVTSATSVNLGILTGDL [A22G],3.15
10,SFMPLVIKVTSATSVNLGILTTDL [A22T],3.93
11,SFMPLVIKVTSATSVNLGILTDDL [A22D],2.67
12,SFMPLVIKVTSATSVNLGILTNDL [A22N],2.95
13,SFMPLVIKVTSATSVNLGILTWDL [A22W],3.55
14,SFMPLVIKVTSATSVNLGILTMDL [A22M],3.85
15,SFMPLVIKVTSATSVNLGILTLDL [A22L],2.58
16,SFMGLVIKVTSATSVNLGILTADL [P4G],2.32
17,SFMCLVIKVTSATSVNLGILTADL [P4C],3.66
18,SFMLLVIKVTSATSVNLGILTADL [P4L],2.34
19,SFMSLVIKVTSATSVNLGILTADL [P4S],1.73
20,SFMQLVIKVTSATSVNLGILTADL [P4Q],4.03
21,SFMPLVIKVTSWTSVNLGILTADL [A12W],1.91
22,SFMPLVIKVTSLTSVNLGILTADL [A12L],3.32
23,SFMPLVIKVTSCTSVNLGILTADL [A12C],4.33
24,SFMPLVIKVTSSTSVNLGILTADL [A12S],1.89

row,Variant,protein stability index
1,SFMPLVIKVTSGTSVNLGILTADL [A12G],3.33
2,SFMPLVIKVTSRTSVNLGILTADL [A12R],2.75
3,SFMPLVIKVTSATSVNLGLLTADL [I19L],2.54
4,SFMPLVIKVTSATSVNLGNLTADL [I19N],2.86
5,SFMPLVIKVTSATSVNLGKLTADL [I19K],2.68
6,SFMPLVIKVTSATSVNLGMLTADL [I19M],3.44
7,SFMPLVIKVTSATSVNLGYLTADL [I19Y],2.38
8,SFMPLVIKVTSATSVNLGFLTADL [I19F],3.09
9,SFMPLVIKVTSATSVNLGTLTADL [I19T],2
10,SFMPLVIKVTSATSVNLGPLTADL [I19P],2.37
11,SFMPLVIKVTSATSVNLGHLTADL [I19H],2.39
12,SFMPLVIKVTSATSVNLGCLTADL [I19C],2.99
13,SFMPLVIKVTSATSVNLGALTADL [I19A],3
14,SFMPLVIKVTSATSVNLGGLTADL [I19G],3.15
15,SFMPLVIKVTSAESVNLGILTADL [T13E],2.6
16,SFMPLVIKVTSAWSVNLGILTADL [T13W],2.75
17,SFMPLVIKVTSARSVNLGILTADL [T13R],3.63
18,SFMPLVIKVTSAQSVNLGILTADL [T13Q],2.25
19,SFMPLVIKVTSAPSVNLGILTADL [T13P],3.09
20,SFMPLVIKVTSAVSVNLGILTADL [T13V],2.43
21,SFMPLVIKVTSANSVNLGILTADL [T13N],2.55
22,SFMPLVIKVTSASSVNLGILTADL [T13S],2.59
23,SFMPLVIKVTSAISVNLGILTADL [T13I],3.67
24,SFMPLVIKVTSATSVNLGILTAEL [D23E],4.12

row,Variant,protein stability index
1,SFMPLVIKVTSATSVNLGILTAFL [D23F],2.91
2,SFMPLVIKVTSATSVNLGILTAPL [D23P],2.65
3,SFMPLVIKVTSATSVNLGILTAKL [D23K],1.8
4,SFMPLVIKVTSATSVNLGILTACL [D23C],2.29
5,SFMPLVIKVTSATSVNLGILTATL [D23T],3.29
6,SFMPLVIKVTSATSVNLGILTAQL [D23Q],3.39
7,SFMPLVIKVTSATSVNLGILTAIL [D23I],3.05
8,SFMPLVIKVTSATSVNLGILTAML [D23M],1.83
9,SFMPLVIKVTSATSVNYGILTADL [L17Y],2.6
10,SFMPLVIKVTSATSVNHGILTADL [L17H],2.92
11,SFMPLVIKVTSATSVNWGILTADL [L17W],3.32
12,SFMPLVIKVTSATSVNCGILTADL [L17C],3.14
13,SFMPLVIKVTSATSVNDGILTADL [L17D],2.04
14,SFMPLVIKVTSATSVNIGILTADL [L17I],2.77
15,SFMPLVIKVTSATSVNTGILTADL [L17T],2.56
16,RFMPLVIKVTSATSVNLGILTADL [S1R],2.98
17,CFMPLVIKVTSATSVNLGILTADL [S1C],3.77
18,KFMPLVIKVTSATSVNLGILTADL [S1K],5.06
19,GFMPLVIKVTSATSVNLGILTADL [S1G],2.77
20,IFMPLVIKVTSATSVNLGILTADL [S1I],3.16
21,EFMPLVIKVTSATSVNLGILTADL [S1E],4.28
22,WFMPLVIKVTSATSVNLGILTADL [S1W],3.82
